# Results reported in the supplement of paper PMC9170038.
# Test system: K4 kissing-loop RNA reporter
# Experiment: apparent KD of K4 kissing-loop reporter; higher = weaker reporter binding
# Settings: Eterna round: R107; input ligand: FMN 200 uM
# Procedure: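 RNA-MaP round R107: designed RNA switches with theophylline, tryptophan, arginine or FMN aptamers are transcribed on-chip within common flanks. They are titrated with a labelled K4 kissing-loop RNA reporter in RNA-MaP buffer (100 mM Tris pH 7.5, 80 mM KCl, 4 mM MgCl2), without ligand or with the indicated ligand. Median apparent KD per design.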
# 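Note: bound reporter read as fluorescence of individual clusters on recovered sequencing chips by microscopy, with normalized cluster intensities fitted with a binding model.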
row,Sequence,apparent KD of K4 kissing-loop reporter [nM]
1,AGUGCACUGUCAGGAUAUAUACAGUGAUGUUGUGUAUGUCAGCAAGUCAAAGACUUGCUCUUCUGUGUAGAAGGGACUGUGUACA [Omei KL FMN B Exc A v4],157
2,AAGUCUCGUUAAUUCGAGGUUACGAUCGAUACCAGUAGCGAGAGGUACCCUUGGCAGCGAAGUGAGUGAUGUUCAUGAAAGAAGA [KL-XTheoA12],78.5
3,AGUGAUGUAGUGUGUUGUUUGUGAAGUGAUCGAGGACCGGUACGGCCGCCACUCGAGUGAUGAGUGAGUGAUGUUUGUUUAGUGG [#18 K4 Tryptophan A Same State],379
4,CGCGCCCAGCCGGAUACCAGUGACCCGCUGGGAACCGCGGGCCCAGAGUGAUGUUCGGGACACCCUUGGCAGCCGCCUGGGCGGC [#2 Same State - Theophylline B Attempt #9 (HarryS)],1370
5,UAAUCCUAGUGAUAAUUAUCAAGUGGUGGGCGAGGACCGGUACGGCCGCCACUCGAAUAUGCAGUGAUGUUGUAAUCCGGAUAAU [Exclusion - Tryptophan A (Freestyle 7)],639
6,GGAGUUACCUGGGAUACCAGCCGGAGGCCCAGAGCUCGGAGUGAUGUUCUGGGAUGUUUCGGCCCUUGGCAGCUCUGGGUCUCCG [#2 Exclusion - Theophylline B Attempt #5 (HarryS)],1050
7,AGGUUUUACGGAGGAUAUGCACUGAGGAGGAGAAUAUAGUGAUGUUAUAUAAGAGGAAGGAGAAGAGUAGAAGGCCGUGAGGUUU [SSFMNB.M],136
8,AUAAUAUGAGUGAUGUUCAUGUAAGCUGAAGGAGCGGACGAAAGUCCAGGUAGGUCGCAGCGUUCCUUUACCUCAUGAGAAGGAG [KL_SSArg-A1 #analogue],125
9,UCCUGCAAUCGGCCACGAAAGUGGAUUGAUACCAGAGUCGAAAGACUCCCUUGGCAGCGAGUGAUGUUCGAAGCAGGUAAAUAAA,464
10,AGCGAUGUUUUCUCUAAGAGUGAUGUUUUUCGAGGACCGGUACGGCCGCCACUCGAAUAAAGUGUGCGGUAGUGAGCUGUUGACA [#18 K4 Tryptophan A Exclusion],710
11,GCCGUAGAUUGAAGGAGCGAGGCUACUUAAAGACCGAGUGAUGUUCGGGAACGUGAAACUCCUCAGGUAGGUCGCAAUCUACGGC,284
12,UGUACAUGUCAGCGAGUGAUGUUCGACGAUACCAGACUCGAUAGAGUCCCUUGGCAGCGUAACGCAUGCCAAACUGGCAUGUACU [#SwitchBubble 9 #K4Early],789
13,GACAUACCUAUGGAGGGCCGAUCGAUCAUACGAGGACCGGUACGGCCGCCACUCGUGGGCAGUGAUGUUGACCCUGGGAGGUAAG,316
14,UGAUAGGACAGAAGGAGCGGAAGCUAGUCAAAGACUAGCACGUUAAUAACAGGAGUGAUGUUCCAGGUAGGUCGCUGUCCUAUCU [ArgBX 24 #SwitchBubble #StaticStem],126
15,ACCAUCAAAGAUGGCCAGGACUCCGCUGAUACCAGAGUGAAAACACUCCCUUGGCAGCAGGUGAGUGAUGUUCACGAGUCCUGGA [Omel KL Theo A SS B v6],986
16,UGGACCUGACUCGAUAAGAGUCAAUGAGAUACCAGUGACGAAAGUCACCCUUGGCAGCUCACUGCCAGUGAUGUUGGUAGGUCCU [#SwitchBubble 3 #StaticStem],1250
17,GCGCGGGAGUGAUGUUCCAAGUGGUGUUAGCGAGGACCGGUACGGCCGCCACUCGUUACGGCCGGGCCGUAGGAUACACUGGCGC [Same State - Tryptophan A (Freestyle 17)],308
18,CAUACGCAUGGAGGAUAUGAGAUUACUCAUAUCAUUUAAUAUUCUCAGUGAUGUUGAGAUUUGGGCUCAGAAGGCCAUGUGUAUG [Ex FMN B 15],479
19,UGAUAGGACAGAAGGAGCGGAAGUGAUGUUUCCAAAAGGUAAGGUCGACAAAGUCGACCCUUCCAGGUAGGUCGCUGUCCUAUCU [ArgBX 11 #Palindromic #SwitchBubble #StaticStem],88.5
20,AUAAACUUGCAGUGAUGUUGCAAGUGAGACUAGGAUAUCAGGAAGCUGAGAAGGAGUCAUCUCCUUCAAACAUCACUAUGAAGGA [whbob_SS_FMNA__2th178],403
21,AAAGGAGUGGAAGGAUAUCCUGGUGUGGGUGGUGUUAGUGAUGUUGGUGGUGCAGUGAUGUUGCGCGGAGAAGGUCCGGUAUUGG [BDazzled - #2 - Exc. FMN B],485

row,Sequence,apparent KD of K4 kissing-loop reporter [nM]
1,UGGAGUUGACGAAAAGUCAACUCCCGAGAAGGAGCGGACGAAAGUCCAGGUAGGUCGCUCGCUACCAGUGAUGUUGGUACUGAAA,125
2,AACGGCCAGUCGGCCGCCACUCGAUGCAGUGAUGUUGCUAACUUUCUAAAAGAGUGAUGUUCAUGGAGGACCGGGACUAGUGUAA [#30 K4 Tryptophan B Exclusion],317
3,UAAUAUAAUCUGUCGUUUACAAUAUUUAGUCAGGAUAUCGUAUAUUCGAGAAGGGACACUAUCUAGUGAUGUUAGAUAUUUCGUU [JR_ExcFMNA_Sub015],51
4,GCUCGUCAUGUCAGCGGUGGUACUGUCGAUACCAGUGCCGUAAGGCGCCCUUGGCAGCGAUGCGCUGGAGUGAUGUUCCAGCGUU [#2 Exclusion - Theophylline A Attempt #32 (HarryS)],110
5,UGUGUUGUUGUGAUGUUUGGUGUUGCAGGGCAGGAUAUCGUAGAGGCGAGAAGGGCUUUUGUGCGGUAUGAGUGAUGUUUGUAGG [rrcgsmullin],197
6,ACACUAUCGUCAUAGACGGUAGUGAACACACAGGAUAUGAGUGAUGUUAGAAGGGUGUAAGACUGUAUCGAAUAGAUACAGUCAA [FmnA 7 #K4BetweenAptamer #OpenEnded],400
7,AAACGUUGGUCUGAUACCAGCUGAUCGGAAACGAUCUUGCUGGAGUGAUGUUCCAGGAAAAGCCCUUGGCAGCAGACCGACGAAA [MAT - Same State Theophlline B - Mod of Eli - D25],901
8,CAACCCUGCUUUUUCGAGUUUUAGGGAUGACGAGGACCGGUACGGCCGCCACUCGACUACACUGUUCAGUGAUGUUGAACGGCGG [Teveza],165
9,UAUGAAUGUGGAGGAUAUUGAUUGAAUCUUGGUCUGGAGUGAUGUUCCGGGAAGCCUUGGAUUCAUCGAGAAGGCCAUGGAUAGU [#03 K4 FMN B Same State],111
10,GUUCGGAUGCGGGAUACCAGCGUACCGAGCAAGCUUCGGGUAGUGAUGUUAUCUGAAUUACGCCCUUGGCAGCCCGCAUCCGGGC [clock_plus],265
11,AGUACAAUGGCGGCCGCCACUCAACAGCAGAUCAAAGAUCUGCUUCACUCAGUGAUGUUGAGUGAGAGGACCGGGCCUUUGUACA [Omei KL Tryp B SS B v4],793
12,UGACAUUGCUCAGAUACCAGACAAGAGGAUCACCCUUGUGCCAACGUACAAAUAAUAAAUGUCCCUUGGCAGCUGAGCAAUGUCU [TheoBX 15],64.1
13,GUCCAACCUGGAGGAUAUCUGCUGUCCAGUGAUGUUGGACACUUUAGUAAAGGCCGGGUAGCCCGCAGAGAAGGCCGGAGUUGCC [Arceer],310
14,UAGUAGCUCUCGGCCGCCACUCCUCAGUGAUGUUGAGAUAUUAAGAGCCAAUUGGCUCAUAUAAAGAGGACCGGGAGAGCUACAU [AK4.2 SS Tryptophan B],355
15,UGAUAGGACAGAAGGAGCGGCAGUGAUGUUGCCAAAAGGGUAAGGUGUCAAAAGACACCCUGCCAGGUAGGUCGCUGUCCUAUCU,166
16,GGGAGUAGUGCGGCCGCCACUGAGAAAGAAGAAGAAUAUAGUGAUGUUAUGUAGGAAAGGAAGAACAGGACCGGGCAUUAGAUUU [SSTRyptB.G],455
17,UGAUAGGACAGAAGGAGCGAGGAGUGAUGUUCCUCAAAAGGUCUAGCAAAGCUAGACCCUCCUCAGGUAGGUCGCUGUCCUAUCU [ArgBX 1 #Palindromic #SwitchBubble #StaticStem],174
18,GCCGUAGAUGGAAGGAGCGUGUCAAAGUGAUGUUUUGAUUAACUCCCUAAGGGAUAGAUGACACAGGUAGGUCGCCAUCUACGGC,74.5
19,GGUUUAUAGGAGGAUACCAGUACGGAUAAAGUACGUUAAUAGUAGAGUGAUGUUCUAAAGUACCCUUGGCAGCUUAGAUUAAGUU [ExTheophylB.J],72
20,AUUUAGACGAGUGAUGUUCGUGUUAUUACAGAGGAUAUGCGUAAUUGCAGAAGGCUGUAUUUAUAUAUGUUAUGUGGUUUUAAAA [whbob_Ex_FMNA__2th185],75.1
21,AAACAUUGGUCUGAUACCAGCUGAUCGGAAACGAUCAUGCUGGAGUGAUGUUCCAGGAAAAGCCCUUGGCAGCAGACCGAUGAAA [MAT - Same State Theophlline B - Mod of Eli - D28],94.7

# Same assay, conditions: Eterna round: R107; input ligand: arginine 13.2 mM
row,Sequence,apparent KD of K4 kissing-loop reporter [nM]
1,AGUGCACUGUCAGGAUAUAUACAGUGAUGUUGUGUAUGUCAGCAAGUCAAAGACUUGCUCUUCUGUGUAGAAGGGACUGUGUACA [Omei KL FMN B Exc A v4],118
2,AAGUCUCGUUAAUUCGAGGUUACGAUCGAUACCAGUAGCGAGAGGUACCCUUGGCAGCGAAGUGAGUGAUGUUCAUGAAAGAAGA [KL-XTheoA12],119
3,AGUGAUGUAGUGUGUUGUUUGUGAAGUGAUCGAGGACCGGUACGGCCGCCACUCGAGUGAUGAGUGAGUGAUGUUUGUUUAGUGG [#18 K4 Tryptophan A Same State],283
4,CGCGCCCAGCCGGAUACCAGUGACCCGCUGGGAACCGCGGGCCCAGAGUGAUGUUCGGGACACCCUUGGCAGCCGCCUGGGCGGC [#2 Same State - Theophylline B Attempt #9 (HarryS)],229
5,UAAUCCUAGUGAUAAUUAUCAAGUGGUGGGCGAGGACCGGUACGGCCGCCACUCGAAUAUGCAGUGAUGUUGUAAUCCGGAUAAU [Exclusion - Tryptophan A (Freestyle 7)],636
6,GGAGUUACCUGGGAUACCAGCCGGAGGCCCAGAGCUCGGAGUGAUGUUCUGGGAUGUUUCGGCCCUUGGCAGCUCUGGGUCUCCG [#2 Exclusion - Theophylline B Attempt #5 (HarryS)],627
7,AGGUUUUACGGAGGAUAUGCACUGAGGAGGAGAAUAUAGUGAUGUUAUAUAAGAGGAAGGAGAAGAGUAGAAGGCCGUGAGGUUU [SSFMNB.M],130
8,AUAAUAUGAGUGAUGUUCAUGUAAGCUGAAGGAGCGGACGAAAGUCCAGGUAGGUCGCAGCGUUCCUUUACCUCAUGAGAAGGAG [KL_SSArg-A1 #analogue],184
9,UCCUGCAAUCGGCCACGAAAGUGGAUUGAUACCAGAGUCGAAAGACUCCCUUGGCAGCGAGUGAUGUUCGAAGCAGGUAAAUAAA,380
10,AGCGAUGUUUUCUCUAAGAGUGAUGUUUUUCGAGGACCGGUACGGCCGCCACUCGAAUAAAGUGUGCGGUAGUGAGCUGUUGACA [#18 K4 Tryptophan A Exclusion],550
